{
  "source": "patent US10876098B2",
  "about": "“Polynucleotide, host cell and a method to recombinantly produce the protein encoded by said polynucleotide having peroxygenative activity” (CONSEJO SUPERIOR DE INVESTIGACIONES CIENTIFICAS (CSIC), priority 2015, dated 2020)",
  "molecules": {"B1": {"name": "SoLo: JaWa variant with added mutation F191S, SEQ ID NO: 42 (protein)", "chain": "MKYFPLFPTLVYAVGVVAFPDYASLAGLSQQELDAIIPTLEAREPGLPPGPLENSSAKLVNDEAHPWKPLRPGDIRGPCPGLNTLASHGYLPRNGVATPAQIINAVQEGFNFDNQAAIFATYAAHLVDGNLITDLLSIGRKTRLTGPDPPPPASVGGLNEHGTFEGDASMTRGDAFFGNNHDFNETLFEQLVDYSNRFGGGKYNLTVAGELRFKRIQDSIATNPNFSFVDFRFSTAYGETTFPANLFVDGRRDDGQLDMDAARSFFQFSRMPDDFFRAPSPRSDTGVEVVVQAHPMQPGKNVGKINSYTVDPTSSDFSTPCLMYEKFVNITVKSLYPNPTVQLRKALNTNLDFLFQGVAAGCTQVFPYGRD"}},
  "key": {"[1]": {"biological_target": "T1, Agrocybe aegerita peroxygenase AaeUPO1 variant SoLo (JaWa + F191S: V57A, L67F, V75I, F191S, G241D, I248V, R257K, F311L), SEQ ID NO: 42 (Cyclocybe aegerita, UniProt B9W4V6, F234S/F354L/G284D/I291V/L110F/R300K/V100A/V118I)", "T1 sequence (B9W4V6 44-371 V100A/L110F/V118I/F234S/G284D/I291V/R300K/F354L)": "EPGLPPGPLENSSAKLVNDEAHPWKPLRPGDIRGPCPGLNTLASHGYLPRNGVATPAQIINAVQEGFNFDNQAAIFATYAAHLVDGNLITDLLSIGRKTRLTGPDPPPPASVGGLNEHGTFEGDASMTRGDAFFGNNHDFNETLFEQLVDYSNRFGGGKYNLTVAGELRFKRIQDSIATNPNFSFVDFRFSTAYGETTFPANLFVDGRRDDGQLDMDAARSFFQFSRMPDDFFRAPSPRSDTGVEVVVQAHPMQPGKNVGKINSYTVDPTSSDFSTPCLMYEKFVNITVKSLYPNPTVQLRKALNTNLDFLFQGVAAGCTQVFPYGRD", "test": "Kinetic constants, SoLo variant", "settings": "SoLo vs parental JaWa, ABTS", "from_the_text": "In order to calculate the values of Km and kcat, values of Vmax were represented at substrate concentrations and the hyperbole function was adjusted (using SigmaPlot 10.0, wherein the parameter a is equal to kcat and the parameter b, to Km)."}, "[2]": {"test": "Total turnover number (TTN) for synthesis of 5′-hydroxypropranolol from propranolol", "type": "biochemical", "experimental": "FIG. 15 Calculation of the total turnover number (TTN) of AaeUPO and SoLo.\n(§1) The reactions were analysed by means of chromatography in reverse phase (HPLC). The equipment was composed of a tertiary pump (Varian-Agilent Technologies, USA) coupled to an autosampler (Merck Millipore, MA, USA); for the separation, a Zorbax Eclipse plus C18 column (15 cm×4.6 cm) at 40° C. was used and the detection was performed using a photodiode detector (PDA) (Varian, Agilent Technologies, USA). The mobile phase selected was a gradient from 10% methanol and 90% ddH2O (in both cases with 0.1% of acetic acid) up to 90% methanol and 10% ddH2O at a flow rate of 0.8 mL/min. The reaction was quantified at 280 nm (based on HPLC standards). […] The standard deviations were less than 5% in all cases."}, "[3]": {"test": "4-AAP assay with propranolol in the absence of ascorbic acid (peroxidase activity on the product)", "type": "biochemical", "experimental": "(§2) FIG. 9 Assay of 4-AAP (4-aminoantipyrine) with different pure UPO variants (AaeUPO1, PaDa-1 and JaWa). […] Each reaction was performed in triplicate.\n(§3) The mother plates were centrifuged (Eppendorf 5810R centrifuge, Germany) for 10 minutes at 3,500 RPM and 4° C. 20 μL of supernatant of these mother plates were transferred to two replica daughter plates with the help of a Freedom EVO liquid-handling robot (Tecan, Switzerland).\n(§4) Without ascorbic, the plates were incubated for 30 minutes and with ascorbic for 60 minutes. […] The plates were briefly agitated and absorbance measured at 530 nm, using a plate reader for such purpose ([…]ax Plus 384, Molecular Devices, USA). The values were normalised against the parental of each plate. To rule out false positives, re-screenings were carried out, in addition to a third re-screening wherein kinetic stability was determined (T50) (P. Molina-Espeja, et al. Appl. Environ. Microbiol. 2014. 80, 3496-3507)."}, "[4]": {"test": "Turnover with 5′-hydroxypropranolol as substrate, HPLC", "type": "biochemical", "settings": "0.03 μM enzyme, 0.4 mM 5′-hydroxypropranolol, 2 mM H2O2, absence of ascorbic acid", "experimental": "FIG. 14 Turnover rates of AaeUPO, JaWa and SoLo. […] The disappearance of the product 5′-hydroxypropranolol can be observed due to the formation of its corresponding quinone by means of the peroxidase activity of the enzyme.\nas §1"}, "[5]": {"test": "Propranolol transformation reaction analysed by HPLC-PDA", "type": "biochemical", "settings": "absence of ascorbic acid", "experimental": "FIG. 13 Chromatogram showing the enzyme reactions.\nas §1"}, "[6]": {"test": "Thermostability assay (T50), culture supernatants, residual activity with ABTS", "type": "physicochemical", "settings": "versus PaDa-I variant", "experimental": "An individual S. cerevisiae colony was selected with the corresponding clone (grown in a SC drop-out minimal medium plate: 100 mL of 6.7% yeast nitrogen base, 100 mL of 19.2 g/L uracil-free amino acid supplement, 100 mL of 20% glucose, 1 mL of 25 g/L chloramphenicol and ddH2O up to 1,000 mL) was inoculated in 2 mL of selective minimal medium (as in the SC plate medium, but with 20 g of bacto agar and rafinose instead of galactose) and was incubated for 48 hour at 30° C. and 220 RPM. An aliquot of this culture was taken such that, upon inoculating it in 5 mL of new minimal medium, optical density at 600 nm would have a value of 0.25 (optical density, OD600=0.25). This starter was incubated until completing two full growth cycles (between 6 and 8 hours), at which time 1 mL of cells were taken to inoculate 9 mL of expression medium in a 100 mL flask (OD600=0.1). This culture of each clone was incubated for 72 hours at 25° C. and 220 RPM (at peak UPO activity; OD600=25-30), the cells were separated by centrifugation (10 minutes at 4,500 RPM and 4° C.) and supernatant was filtered (using a glass and nitrocellulose filter with a pore size of 0.45 μm). Appropriate dilutions of the supernatants were prepared so that aliquots of 20 μL would give rise to a linear response in kinetic mode. 50 μL of supernatant were used for each point in a temperature gradient created by means of thermocyclator, from 30 to 80° C. After incubating for 10 minutes, the aliquots were cooled in ice for 10 minute and tempered at room temperature for 5 minutes. […] The thermostability values were calculated in accordance with the ratio between the residual activities incubated at different temperatures and the value of initial activity at room temperature. The value of T50 was determined as the value of the temperature at which the protein loses 50% of it initial activity after incubating for 10 minutes.\nAn individual S. cerevisiae colony was selected with the corresponding clone (grown on a SC drop-out minimal medium plate: 100 mL of 6.7% yeast nitrogen base, 100 mL of 19.2 g/L uracil-free amino acid supplement, 100 mL of 20% glucose, 1 mL of 25 g/L chloramphenicol and ddH2O up to 1,000 mL), was inoculated in 3 mL of selective minimal medium (like the SC plate medium, but with 20 g of bacto agar and rafinose instead of galactose) and incubated for 48 hours at 30° C. and 220 RPM. […] The thermostability values were calculated in accordance with the ratio between the residual activities incubated at different temperatures and the value of initial activity at room temperature. The value of T50 was determined as as the temperature value at which the protein loses 50% of its initial activity after incubating for […]."}, "[7]": {"test": "4-AAP assay with propranolol in the presence of ascorbic acid (peroxygenase activity)", "type": "biochemical", "settings": "propranolol, in the presence of ascorbic acid", "experimental": "as §2, §3, §4"}},
  "data": [
    {"molecule": "CCn1c(=NN=c2sc3cc(S(=O)(=O)O)ccc3n2CC)sc2cc(S(=O)(=O)O)ccc21", "note": "[ABTS, 2,2′-azino-bis(3-ethylbenzothiazolin-6-sulfonic acid)]", "values": [
      {"measurement": "affinity to the substrate with respect to its parental", "setting": "[1]", "result": "three fold worse"}
    ]},
    {"molecule": "B1", "values": [
      {"measurement": "TTNs, With ascorbic acid", "setting": "[2]; 0.03 μM enzyme, propranolol, 2 mM H2O2 added every 10 minutes, 4 mM ascorbic acid", "result": "62,000"},
      {"measurement": "TTNs, Without ascorbic acid", "setting": "[2]; 0.03 μM enzyme, propranolol, 2 mM H2O2 added every 10 minutes, absence of ascorbic acid", "result": "45,000"},
      {"measurement": "increase in TTN for synthesis of 5′-hydroxypropranolol versus wild AaeUPO", "setting": "[2]; absence of antioxidants", "result": 15, "unit": "fold"},
      {"measurement": "decrease in peroxidase activity relative to parental (JaWa)", "setting": "[3]", "result": "more than two fold"},
      {"measurement": "5′-hydroxypropranolol maintained without oxidising", "setting": "[4]", "result": "approximately 50%"},
      {"measurement": "regioselectivity against 5′-hydroxypropranolol", "setting": "[5]; 0.03 μM enzyme, 4 mM propranolol, 2 mM H2O2", "result": 99, "unit": "%"},
      {"measurement": "amount of 5′-hydroxypropranolol produced", "setting": "[5]; compared among AaeUPO, PaDa-I, JaWa, SoLo", "result": "produce the largest amount of 5′-hydroxypropranolol"},
      {"measurement": "increase in thermostability (T50) with respect to PaDa-I", "setting": "[6]", "result": 2, "unit": "°C"},
      {"measurement": "peroxygenase activity on microplate higher than its parental (JaWa)", "setting": "[7]", "result": 30, "unit": "%"}
    ]}
  ]
}
